Laboratory results published in IntAct's records for PubMed 35512704.

B1: Speckle-type POZ protein (Homo sapiens), O43791 (parent)
chain: MSRVPSPPPPAEMSSGPVAESWCYTQIKVVKFSYMWTINNFSFCREEMGEVIKSSTFSSGANDKLKWCLRVNPKGLDEESKDYLSLYLLLVSCPKSEVRAKFKFSILNAKGEETKAMESQRAYRFVQGKDWGFKKFIRRDFLLDEANGLLPDDKLTLFCEVSVVQDSVNISGQNTMNMVKVPECRLADELGGLWENSRFTDCCLCVAGQEFQAHKAILAARSPVFSAMFEHEMEESKKNRVEINDVEPEVFKEMMCFIYTGKAPNLDKMADDLLAAADKYALERLKVMCEDALCSNLSVENAAEILILADLHSADQLKTQAVDFINYHASDVLETSGWKSMVVSHPHLVAEAYRSLASAQCPFLGPPRKRLKQS

Variants of: B1
Conditions: with setb1_human SETDB1, Q15047

Row | Variant | effect of a mutation on the interaction
1 | F133V | with no effect

Variants of: B1
Conditions: with skp2_human SKP2, Q13309

Row | Variant | effect of a mutation on the interaction
2 | F133V | with no effect

Variants of: B1
Conditions: with xct_human SLC7A11, Q9UPY5
Sequence of xct_human SLC7A11, Q9UPY5 (Q9UPY5 whole entry): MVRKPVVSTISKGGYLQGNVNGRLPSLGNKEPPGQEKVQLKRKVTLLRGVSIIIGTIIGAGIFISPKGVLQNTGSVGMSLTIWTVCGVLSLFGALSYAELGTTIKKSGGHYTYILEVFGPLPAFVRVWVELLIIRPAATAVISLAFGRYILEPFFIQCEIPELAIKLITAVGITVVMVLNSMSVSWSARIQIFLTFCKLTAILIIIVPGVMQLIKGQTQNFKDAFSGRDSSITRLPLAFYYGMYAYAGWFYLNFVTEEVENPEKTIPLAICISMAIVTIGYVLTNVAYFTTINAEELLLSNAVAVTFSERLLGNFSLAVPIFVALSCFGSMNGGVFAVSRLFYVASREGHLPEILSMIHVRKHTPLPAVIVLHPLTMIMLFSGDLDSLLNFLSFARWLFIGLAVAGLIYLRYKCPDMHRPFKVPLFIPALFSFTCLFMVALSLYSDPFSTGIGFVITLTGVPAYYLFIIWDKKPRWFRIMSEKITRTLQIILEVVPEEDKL

Row | Variant | effect of a mutation on the interaction
3 | F133V | with no effect

Variants of: B1
Conditions: with smad1_human SMAD1, Q15797

Row | Variant | effect of a mutation on the interaction
4 | F133V | with no effect

Variants of: B1
Conditions: with smca4_human SMARCA4, P51532

Row | Variant | effect of a mutation on the interaction
5 | F133V | with no effect

Variants of: B1
Conditions: with snf5_human SMARCB1, Q12824

Row | Variant | effect of a mutation on the interaction
6 | F133V | with no effect

Variants of: B1
Conditions: with smo_human SMO

Row | Variant | effect of a mutation on the interaction
7 | F133V | with no effect

Variants of: B1
Conditions: with smuf1_human SMURF1, Q9HCE7
Sequence of smuf1_human SMURF1, Q9HCE7 (Q9HCE7 whole entry): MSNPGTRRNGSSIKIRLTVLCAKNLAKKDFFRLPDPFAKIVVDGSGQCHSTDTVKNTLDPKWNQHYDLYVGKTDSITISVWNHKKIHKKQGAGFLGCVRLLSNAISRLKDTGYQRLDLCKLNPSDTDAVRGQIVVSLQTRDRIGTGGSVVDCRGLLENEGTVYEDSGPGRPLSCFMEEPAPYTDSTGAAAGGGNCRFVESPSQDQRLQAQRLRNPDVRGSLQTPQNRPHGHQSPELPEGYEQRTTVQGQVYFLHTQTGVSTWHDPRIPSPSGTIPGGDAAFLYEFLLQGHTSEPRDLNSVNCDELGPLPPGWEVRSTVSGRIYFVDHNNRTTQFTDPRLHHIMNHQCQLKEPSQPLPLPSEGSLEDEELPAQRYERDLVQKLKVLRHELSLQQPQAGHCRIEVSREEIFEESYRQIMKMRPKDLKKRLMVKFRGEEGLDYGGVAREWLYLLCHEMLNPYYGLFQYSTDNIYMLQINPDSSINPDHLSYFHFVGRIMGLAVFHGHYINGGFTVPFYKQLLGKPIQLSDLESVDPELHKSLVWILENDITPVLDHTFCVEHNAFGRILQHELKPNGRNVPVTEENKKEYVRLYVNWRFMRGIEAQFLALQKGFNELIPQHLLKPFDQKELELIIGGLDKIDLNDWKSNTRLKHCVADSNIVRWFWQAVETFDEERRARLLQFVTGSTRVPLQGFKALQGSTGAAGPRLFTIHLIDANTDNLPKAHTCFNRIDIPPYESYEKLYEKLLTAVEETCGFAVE

Row | Variant | effect of a mutation on the interaction
8 | F133V | with no effect

Variants of: B1
Conditions: with socs1_human SOCS1, O15524

Row | Variant | effect of a mutation on the interaction
9 | F133V | with no effect

Variants of: B1
Conditions: with sox10_human SOX10, P56693

Row | Variant | effect of a mutation on the interaction
10 | F133V | with no effect

Variants of: B1
Conditions: with sox2_human SOX2, P48431

Row | Variant | effect of a mutation on the interaction
11 | F133V | with no effect

Variants of: B1
Conditions: with src_human SRC

Row | Variant | effect of a mutation on the interaction
12 | F133V | with no effect

Variants of: B1
Conditions: with whr1_human WHR1, P49842

Row | Variant | effect of a mutation on the interaction
13 | F133V | with no effect

Variants of: B1
Conditions: with stk38_human STK38, Q15208
Sequence of stk38_human STK38, Q15208 (Q15208 whole entry, looked up): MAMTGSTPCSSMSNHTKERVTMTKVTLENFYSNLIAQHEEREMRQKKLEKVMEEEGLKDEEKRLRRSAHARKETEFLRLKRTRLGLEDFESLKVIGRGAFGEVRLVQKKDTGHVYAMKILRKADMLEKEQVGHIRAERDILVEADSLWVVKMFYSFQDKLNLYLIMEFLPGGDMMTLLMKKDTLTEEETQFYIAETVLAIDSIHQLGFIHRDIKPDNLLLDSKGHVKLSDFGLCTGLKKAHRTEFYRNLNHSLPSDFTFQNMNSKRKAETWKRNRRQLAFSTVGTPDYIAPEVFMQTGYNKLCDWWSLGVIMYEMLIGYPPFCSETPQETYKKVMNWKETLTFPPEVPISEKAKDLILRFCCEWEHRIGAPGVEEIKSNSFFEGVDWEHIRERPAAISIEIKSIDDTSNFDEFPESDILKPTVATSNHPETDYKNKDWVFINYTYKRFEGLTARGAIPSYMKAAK

Row | Variant | effect of a mutation on the interaction
14 | F133V | with no effect

Variants of: B1
Conditions: with eloc_human ELOC

Row | Variant | effect of a mutation on the interaction
15 | F133V | with no effect

Variants of: B1
Conditions: with tfe2_human TCF3, P15923
Sequence of tfe2_human TCF3, P15923 (P15923 whole entry): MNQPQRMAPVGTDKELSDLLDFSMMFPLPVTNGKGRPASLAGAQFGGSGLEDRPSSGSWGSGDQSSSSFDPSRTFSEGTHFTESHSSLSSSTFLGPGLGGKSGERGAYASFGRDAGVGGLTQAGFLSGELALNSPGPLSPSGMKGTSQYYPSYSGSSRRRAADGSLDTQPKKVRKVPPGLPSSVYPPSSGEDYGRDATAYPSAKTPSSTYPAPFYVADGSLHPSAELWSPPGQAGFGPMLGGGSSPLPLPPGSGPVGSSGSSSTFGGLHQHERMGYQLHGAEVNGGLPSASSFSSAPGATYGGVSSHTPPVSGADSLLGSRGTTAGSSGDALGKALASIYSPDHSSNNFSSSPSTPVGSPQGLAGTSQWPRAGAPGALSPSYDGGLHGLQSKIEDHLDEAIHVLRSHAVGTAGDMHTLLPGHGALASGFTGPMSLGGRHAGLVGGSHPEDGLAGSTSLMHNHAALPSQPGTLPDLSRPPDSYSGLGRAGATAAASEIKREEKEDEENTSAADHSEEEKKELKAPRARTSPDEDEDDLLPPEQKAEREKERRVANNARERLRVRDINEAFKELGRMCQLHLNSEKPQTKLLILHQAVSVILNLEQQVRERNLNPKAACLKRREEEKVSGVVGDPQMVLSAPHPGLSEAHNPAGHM

Row | Variant | effect of a mutation on the interaction
16 | F133V | with no effect

Variants of: B1
Conditions: with tead1_human TEAD1, P28347
Sequence of tead1_human TEAD1, P28347 (P28347 whole entry): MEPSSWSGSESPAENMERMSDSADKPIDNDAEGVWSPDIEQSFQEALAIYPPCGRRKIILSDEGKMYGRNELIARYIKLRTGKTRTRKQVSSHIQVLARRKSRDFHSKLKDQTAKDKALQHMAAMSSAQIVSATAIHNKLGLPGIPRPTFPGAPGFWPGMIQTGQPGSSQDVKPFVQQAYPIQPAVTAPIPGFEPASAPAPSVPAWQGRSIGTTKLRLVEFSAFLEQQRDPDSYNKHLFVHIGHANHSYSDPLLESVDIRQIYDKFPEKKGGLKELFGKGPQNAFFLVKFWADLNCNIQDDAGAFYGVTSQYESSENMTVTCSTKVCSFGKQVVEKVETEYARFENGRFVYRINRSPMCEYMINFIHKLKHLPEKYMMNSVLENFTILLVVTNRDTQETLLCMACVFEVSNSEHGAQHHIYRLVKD

Row | Variant | effect of a mutation on the interaction
17 | F133V | with no effect

Variants of: B1
Conditions: with tead3_human TEAD3, Q99594
Sequence of tead3_human TEAD3, Q99594 (Q99594 whole entry): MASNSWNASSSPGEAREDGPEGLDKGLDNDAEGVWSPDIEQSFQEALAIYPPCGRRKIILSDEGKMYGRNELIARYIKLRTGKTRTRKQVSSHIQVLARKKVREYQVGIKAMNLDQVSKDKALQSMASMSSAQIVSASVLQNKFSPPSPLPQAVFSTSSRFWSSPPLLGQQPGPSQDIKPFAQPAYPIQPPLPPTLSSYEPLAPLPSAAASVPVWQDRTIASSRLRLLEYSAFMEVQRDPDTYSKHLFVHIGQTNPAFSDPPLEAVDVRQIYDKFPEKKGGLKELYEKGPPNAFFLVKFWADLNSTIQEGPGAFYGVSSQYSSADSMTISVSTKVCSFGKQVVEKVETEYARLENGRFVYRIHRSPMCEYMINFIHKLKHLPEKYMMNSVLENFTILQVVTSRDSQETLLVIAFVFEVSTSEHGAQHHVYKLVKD

Row | Variant | effect of a mutation on the interaction
18 | F133V | with no effect

Variants of: B1
Conditions: with tead4_human TEAD4, Q15561

Row | Variant | effect of a mutation on the interaction
19 | F133V | with no effect

Variants of: B1
Conditions: with tgfr2_human TGFBR2, P37173

Row | Variant | effect of a mutation on the interaction
20 | F133V | with no effect

Variants of: B1
Conditions: with tnr14_human TNFRSF14, Q92956
Sequence of tnr14_human TNFRSF14, Q92956 (Q92956 whole entry): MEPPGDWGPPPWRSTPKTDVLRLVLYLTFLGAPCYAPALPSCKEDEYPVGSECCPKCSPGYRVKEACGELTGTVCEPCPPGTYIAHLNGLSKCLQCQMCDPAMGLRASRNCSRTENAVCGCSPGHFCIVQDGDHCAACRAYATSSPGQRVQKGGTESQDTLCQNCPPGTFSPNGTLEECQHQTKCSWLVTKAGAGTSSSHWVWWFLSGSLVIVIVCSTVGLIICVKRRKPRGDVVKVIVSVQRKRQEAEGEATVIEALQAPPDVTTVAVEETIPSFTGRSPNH

Row | Variant | effect of a mutation on the interaction
21 | F133V | with no effect

Variants of: B1
Conditions: with tpx2_human TPX2, Q9ULW0

Row | Variant | effect of a mutation on the interaction
22 | F133V | with no effect

Variants of: B1
Conditions: with tsc2_human TSC2, P49815

Row | Variant | effect of a mutation on the interaction
23 | F133V | with no effect

Variants of: B1
Conditions: with tshr_human TSHR

Row | Variant | effect of a mutation on the interaction
24 | F133V | with no effect

Variants of: B1
Conditions: with vegfa_human VEGFA

Row | Variant | effect of a mutation on the interaction
25 | F133V | with no effect

Variants of: B1
Conditions: with vhl_human VHL

Row | Variant | effect of a mutation on the interaction
26 | F133V | with no effect

Variants of: B1
Conditions: with wee1_human WEE1, P30291
Sequence of wee1_human WEE1, P30291 (P30291 whole entry, looked up): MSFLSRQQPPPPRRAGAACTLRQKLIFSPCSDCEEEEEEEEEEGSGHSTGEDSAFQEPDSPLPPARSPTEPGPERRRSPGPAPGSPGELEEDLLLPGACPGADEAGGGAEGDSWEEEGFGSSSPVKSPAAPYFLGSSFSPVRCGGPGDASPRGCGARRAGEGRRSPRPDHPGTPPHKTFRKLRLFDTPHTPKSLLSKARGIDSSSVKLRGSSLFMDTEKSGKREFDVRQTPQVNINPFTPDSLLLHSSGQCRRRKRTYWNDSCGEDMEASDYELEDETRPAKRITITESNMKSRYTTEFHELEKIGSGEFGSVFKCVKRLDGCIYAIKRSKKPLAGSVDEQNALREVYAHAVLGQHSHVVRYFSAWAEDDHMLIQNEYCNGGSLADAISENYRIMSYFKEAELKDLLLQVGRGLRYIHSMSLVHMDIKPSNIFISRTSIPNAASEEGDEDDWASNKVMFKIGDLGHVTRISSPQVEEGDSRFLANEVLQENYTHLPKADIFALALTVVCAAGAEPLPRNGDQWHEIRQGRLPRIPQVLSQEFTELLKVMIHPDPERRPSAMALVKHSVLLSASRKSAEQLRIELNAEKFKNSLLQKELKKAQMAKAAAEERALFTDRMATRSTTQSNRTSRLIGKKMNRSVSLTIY

Row | Variant | effect of a mutation on the interaction
27 | F133V | with no effect

Variants of: B1
Conditions: with wwtr1_human WWTR1, Q9GZV5
Sequence of wwtr1_human WWTR1, Q9GZV5 (Q9GZV5 whole entry): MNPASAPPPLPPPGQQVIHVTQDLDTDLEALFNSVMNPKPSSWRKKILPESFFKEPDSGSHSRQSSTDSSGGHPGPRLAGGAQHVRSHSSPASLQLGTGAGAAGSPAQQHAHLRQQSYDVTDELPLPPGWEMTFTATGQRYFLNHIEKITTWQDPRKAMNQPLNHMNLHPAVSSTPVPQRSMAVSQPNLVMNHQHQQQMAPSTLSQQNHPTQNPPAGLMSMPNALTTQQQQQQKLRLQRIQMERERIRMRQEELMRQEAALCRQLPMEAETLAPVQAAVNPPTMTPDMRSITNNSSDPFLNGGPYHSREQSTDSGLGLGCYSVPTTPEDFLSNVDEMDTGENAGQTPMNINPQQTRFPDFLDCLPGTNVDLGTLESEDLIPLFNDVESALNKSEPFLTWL

Row | Variant | effect of a mutation on the interaction
28 | F133V | with no effect

Variants of: B1
Conditions: with xpo1_human XPO1, O14980

Row | Variant | effect of a mutation on the interaction
29 | F133V | with no effect

Variants of: B1
Conditions: with cblb_human CBLB

Row | Variant | effect of a mutation on the interaction
30 | F133V | causing an interaction

Variants of: B1
Conditions: with jun_human JUN

Row | Variant | effect of a mutation on the interaction
31 | F133V | causing an interaction

Variants of: B1
Conditions: with kdm6a_human KDM6A

Row | Variant | effect of a mutation on the interaction
32 | F133V | causing an interaction

Variants of: B1
Conditions: with pax5_human PAX5, Q02548

Row | Variant | effect of a mutation on the interaction
33 | F133V | causing an interaction

Variants of: B1
Conditions: with PIK3C2B

Row | Variant | effect of a mutation on the interaction
34 | F133V | causing an interaction

Variants of: B1
Conditions: with e2f5_human E2F5, Q15329
Sequence of e2f5_human E2F5, Q15329 (Q15329 whole entry): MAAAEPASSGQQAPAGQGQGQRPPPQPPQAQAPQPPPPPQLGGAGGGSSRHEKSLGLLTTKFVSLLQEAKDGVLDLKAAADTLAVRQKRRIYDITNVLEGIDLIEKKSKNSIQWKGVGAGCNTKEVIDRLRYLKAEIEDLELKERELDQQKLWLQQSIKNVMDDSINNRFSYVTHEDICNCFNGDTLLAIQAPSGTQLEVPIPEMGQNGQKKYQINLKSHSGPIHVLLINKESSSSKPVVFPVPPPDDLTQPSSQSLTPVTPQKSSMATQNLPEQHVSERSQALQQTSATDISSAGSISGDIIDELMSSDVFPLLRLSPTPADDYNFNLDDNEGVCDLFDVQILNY

Row | Variant | effect of a mutation on the interaction
35 | F133V | causing an interaction

Variants of: B1
Conditions: with cul3_human CUL3, Q13618

Row | Variant | effect of a mutation on the interaction
36 | F133V | increasing interaction strength

Variants of: B1
Conditions: with etv1_human ETV1, P50549

Row | Variant | effect of a mutation on the interaction
37 | F133V | decreasing interaction strength
